Results: patent publication US20210380640A1
Like-named read-outs stand apart in the source and are kept apart here.

Assays:
[1] = target: full-length recombinant MrkA protein with an N-terminal 6xHis-SUMO-tag (MyBiosource, MBS1248970) (Klebsiella pneumoniae) (UniProt P12267); experiment: sandwich ELISA 4, PCC immobilised, MrkA 100 nM; reference cy(LLFFF)
[2] = target: SARS-CoV-2 spike protein (SARS-CoV-2) (UniProt P0DTC2)
[3] = target: full-length recombinant MrkA protein with an N-terminal 6xHis-SUMO-tag (MyBiosource, MBS1248970) (Klebsiella pneumoniae) (UniProt P12267); experiment: sandwich ELISA 5, PCC immobilised, MrkA 25 nM; reference cy(LLFFF)
[4] = target: SARS-CoV-2 spike protein (SARS-CoV-2) (UniProt P0DTC2); remark: listed apart in the source
[5] = target: full-length recombinant MrkA protein with an N-terminal 6xHis-SUMO-tag (MyBiosource, MBS1248970) (Klebsiella pneumoniae) (UniProt P12267); experiment: sandwich ELISA 6, PCC immobilised, MrkA 25 nM; reference cy(LLFFF)
[6] = target: full-length recombinant MrkA protein with an N-terminal 6xHis-SUMO-tag (MyBiosource, MBS1248970) (Klebsiella pneumoniae) (UniProt P12267); experiment: sandwich ELISA 2, PCC immobilised, MrkA 25 nM; reference cy(LLFFF)
[7] = target: full-length recombinant MrkA protein with an N-terminal 6xHis-SUMO-tag (MyBiosource, MBS1248970) (Klebsiella pneumoniae) (UniProt P12267); experiment: ELISA, PCC immobilised, full-length recombinant MrkA
[8] = target: full-length recombinant MrkA protein with an N-terminal 6xHis-SUMO-tag (MyBiosource, MBS1248970) (Klebsiella pneumoniae) (UniProt P12267); experiment: sandwich ELISA 1, PCC immobilised, [MrkA] N/A; the reference itself
[9] = target: full-length recombinant MrkA protein with an N-terminal 6xHis-SUMO-tag (MyBiosource, MBS1248970) (Klebsiella pneumoniae) (UniProt P12267); experiment: sandwich ELISA 2, PCC immobilised, MrkA 25 nM; the reference itself
[10] = target: full-length recombinant MrkA protein with an N-terminal 6xHis-SUMO-tag (MyBiosource, MBS1248970) (Klebsiella pneumoniae) (UniProt P12267); experiment: sandwich ELISA 3, PCC immobilised, MrkA 50 nM; the reference itself
[11] = target: full-length recombinant MrkA protein with an N-terminal 6xHis-SUMO-tag (MyBiosource, MBS1248970) (Klebsiella pneumoniae) (UniProt P12267); experiment: sandwich ELISA 5, PCC immobilised, MrkA 25 nM; the reference itself
[12] = target: full-length recombinant MrkA protein with an N-terminal 6xHis-SUMO-tag (MyBiosource, MBS1248970) (Klebsiella pneumoniae) (UniProt P12267); experiment: sandwich ELISA 6, PCC immobilised, MrkA 25 nM; the reference itself
[13] = target: full-length recombinant MrkA protein with an N-terminal 6xHis-SUMO-tag (MyBiosource, MBS1248970) (Klebsiella pneumoniae) (UniProt P12267); experiment: sandwich ELISA 4, PCC immobilised, MrkA 100 nM; the reference itself
[14] = target: full-length recombinant MrkA protein with an N-terminal 6xHis-SUMO-tag (MyBiosource, MBS1248970) (Klebsiella pneumoniae) (UniProt P12267); experiment: sandwich ELISA, biotinylated PCC immobilised, His-SUMO-MrkA titrated (FIG. 3A)
[15] = target: full-length recombinant MrkA protein with an N-terminal 6xHis-SUMO-tag (MyBiosource, MBS1248970) (Klebsiella pneumoniae) (UniProt P12267); experiment: sandwich ELISA 3, PCC immobilised, MrkA 50 nM; reference cy(LLFFF)

Substance: cy(TTFFF) (peptide)
- Relative affinity (ratio of ELISA signal to cy(LLFFF)) [1]: 0.04

Substance: aakrG (peptide)
- EC50 [2]: 16.4 nM

Substance: ykdld (peptide)
- EC50 [2]: 4 nM

Substance: skevd (peptide)
- EC50 [2]: 4.6 nM

Substance: cy(LLFFF)+R3 (peptide)
- Relative affinity (ratio of ELISA signal to cy(LLFFF)) [3]: 0.9

Substance: tsthG (peptide)
- EC50 [2]: 3.6 nM

Substance: nkvyG (peptide)
- EC50 [2]: 4.4 nM

Substance: andkd (peptide)
- EC50 [4]: 4.2 nM

Substance: cy(HLFFF) (peptide)
- Relative affinity (ratio of ELISA signal to cy(LLFFF)) [5]: 0.81

Substance: cy(LLFAF) (peptide)
- Relative affinity (ratio of ELISA signal to cy(LLFFF)) [6]: 0.1

Substance: edlvk (peptide)
- EC50 [2]: 4.3 nM

Substance: sdyre (peptide)
- EC50 [4]: 4.2 nM

Substance: nnpdh (peptide)
- EC50 [4]: 3.8 nM

Substance: fdtta (peptide)
- EC50 [2]: 3.2 nM

Substance: cy(LLFFA) (peptide)
- Relative affinity (ratio of ELISA signal to cy(LLFFF)) [6]: 0.04

Substance: eprnn (peptide)
- EC50 [2]: 11 nM

Substance: dyGvd (peptide)
- EC50 [2]: 2.9 nM

Substance: cy(LLFFF)+R9 (peptide)
- Relative affinity (ratio of ELISA signal to cy(LLFFF)) [3]: 0.58

Substance: G1Gld (peptide)
- EC50 [4]: 4.2 nM

Substance: cy(LLFFF)+R6 (peptide)
- Relative affinity (ratio of ELISA signal to cy(LLFFF)) [3]: 1.22

Substance: cy(LLFFF), biotinylated (peptide)
- EC50 [7]: 230 nM
- Relative affinity (ratio of ELISA signal to cy(LLFFF)) [8]: 1
- Relative affinity (ratio of ELISA signal to cy(LLFFF)) [9]: 1
- Relative affinity (ratio of ELISA signal to cy(LLFFF)) [10]: 1
- Relative affinity (ratio of ELISA signal to cy(LLFFF)) [11]: 1
- Relative affinity (ratio of ELISA signal to cy(LLFFF)) [12]: 1
- Relative affinity (ratio of ELISA signal to cy(LLFFF)) [13]: 1
- EC50 [14]: 50 nM

Substance: cy(AAFFF) (peptide)
- Relative affinity (ratio of ELISA signal to cy(LLFFF)) [15]: 0.15

Substance: cy(LAFFF) (peptide)
- Relative affinity (ratio of ELISA signal to cy(LLFFF)) [6]: 0.26

Substance: dynGp (peptide)
- EC50 [2]: 2.9 nM

Substance: ydrsd (peptide)
- EC50 [4]: 4.2 nM

Substance: GGarn (peptide)
- EC50 [4]: 3.4 nM

Substance: senfd (peptide)
- EC50 [2]: 3.8 nM

Substance: cy(ALFFF) (peptide)
- Relative affinity (ratio of ELISA signal to cy(LLFFF)) [6]: 0.53

Substance: tGarn (peptide)
- EC50 [4]: 3.1 nM

Substance: cy(LLAFF) (peptide)
- Relative affinity (ratio of ELISA signal to cy(LLFFF)) [6]: 0.59

Substance: skdfd (peptide)
- EC50 [2]: 3.2 nM

Substance: cy(DLFFF) (peptide)
- Relative affinity (ratio of ELISA signal to cy(LLFFF)) [5]: 0.21

Substance: avtr (peptide)
- EC50 [2]: 3.4 nM

Substance: dpvtd (peptide)
- EC50 [4]: 4.1 nM
